Test results taken from the DeepSol protein solubility set.

Assay: soluble on expression in E. coli; label from the status in PepcDB or PDB records

Sequence	soluble on expression in E. coli
LFRRWVIYIIRLYQRWISPLKTMPSCRFYPTCSQYAIDAVGRYGVIKGGFMALKRILKCHPFHPGGYDPVK	soluble
MITILGAGKVGMATAVMLMMRGYDDLLLIARTPGKPQGEALDLAHAAAELGVDIRISGSNSYEDMRGSDIVLVTAGIGRKPGMTREQLLEANANTMADLAEKIKAYAKDAIVVITTNPVDAMTYVMYKKTGFPRERVIGFSGILDSARMAYYISQKLGVSFKSVNAIVLGMHGQKMFPVPRLSSVGGVPLEHLMSKEEIEEVVSETVNAGAKITELRGYSSNYGPAAGLVLTVEAIKRDSKRIYPYSLYLQGEYGYNDIVAEVPAVIGKSGIERIIELPLTEDEKRKFDEAVQAVKKLVETLPPQLRE	soluble
MSLKSLKAKFRKSDTNEWNKNDDRLLQAVENGDAEKVASLLGKKGASATKHDSEGKTAFHLAAAKGHVECLRVMITHGVDVTAQDTTGHSALHLAAKNSHHECIRRLLQSKCPAESVDSSGKTALHYAAAQGCLQAVQILCEHKSPINLKDLDGNIPLLLAVQNGHSEICHFLLDHGADVNSRNKSGRTALMLACEIGSSNAVEALIKKGADLNLVDSLGYNALHYSKLSENAGIQSLLMSKISQDADLKTEGHHHHHH	soluble
MAAHQLSDFQRNKILRVFNTFYDCNHDGVIEWDDFELAIKKICNLHSWPTDGKKHNEARATLKLIWDGLRKYADENEDEQVTKEEWLKMWAECVKSVEKGESLPEWLTKYMNFMFDVNDTSGDNIIDKHEYSTVYMSYGIPKSDCDAAFDTLSDGGKTMVTREIFARLWTEYFVSNDRGAKGNHLFGTLKL	soluble
MPKDNTWYTGAKLGWSQYSRENQLGAGAFGGYQVNPYVGFEMGYDWLGRMPRKAQGVQLTAKLGYPKLGTDDLDIYTRLGGMVWRADTSDKDGNGYISAAEASVSPVFAGGVEYVIRRRITPEIATRLEYQWTNNASDNGMLSLGVSYRFGQGEAA	soluble
MGSDKIHHHHHHMPRPRRTQISLEDTPFYHCCSRVVRRAFLCGDDSYSGKNYDHRRAWVESLLFELEAVFAIDVVAFAVMSNHLHVVLRIDVETANRWSDREVLEQWHKLFKGDELTQKFAKGGLVEADEVNRLRHSIAIYRSRLCDISWFMRCLNEPIARQANQEDNCTGRFWEGRFKSQALLDEAAVLACMTYVDLNPIRAQMADTLEQSAHTSIQLRIQAALKDEQPKNLLPFIGNERDNQPIGITFSLIDYLQLVDDTGRIIRNDKLGAITENSAKLLTRLNIHHDNWLKLTTEFGKLFHGPVGTLQELTDYCEHLEKRRRHFAKCCQHLNAG	not soluble
MSLRFTTISKAYDNVTTDDTQYRILIVEDDRSQALFAQSVLQGAGIHAQIEMSASEVLKVIEDYRPDLILMDLNMPELDGISLTTLIRQQPNQLLLPIVFLSGDTDPEKQFEVLDSGADDFLTKPIQPRHLIAAVSNRMHRLRQQQQNAQQADTQINIQKTSITELQTRIHIVEQLEVALSSGAQGALFFIEVSSALNLRTRYGYTAFERLMNQVEYHLAQEAHPYSLARISDHSFLLLAIDLAATEHQALATHLREHLATLPLPIQDDELVHLRSAIGYAPLNQGFKNADDAVECTESATLEARQNNEGIYAYVPLRTPENTGHLALLDGQLELAYQPIVEVAGSDTAQYQVLLRLRKADGNLLSAGLVIPAAEAAGRIMELDQQVIEQALDILKLHQDTNQQLRLFVSQSVRTLIHEGFSDWIIKNLRERNVNGTGLVIDLRLQDAVIHAIPLKQLCKELLKHNVKFCLSQFESNSEATVLFSELPLNFVRLSQHFGDAHNHPERQKELPLLIEQAHEHNLHVIGQCIEDAQAATFMWMNGVDLIQGNLFQNVSKDLNFNFHDMVLEGHHHHHH	soluble
GAMGSMKPYLFDLKLKDTEKLDWKKGLSSYLKKSYGSSQWRTFYDEKATSELDHLRNNANGELAPSSLSEQNLKYYSFLEHLYFRLGSKGSRLKMDFTWYDAEYSSAQKGLKYTQHTLAFEKSCTLFNIAVIFTQIARENINEDYKNSIANLTKAFSCFEYLSENFLNSPSVDLQSENTRFLANICHAEAQELFVLKLLNDQISSKQYTLISKLSRATCNLFQKCHDFMKEIDDDVAIYGEPKWKTTVTCKLHFYKSLSAYYHGLHLEEENRVGEAIAFLDFSMQQLISSLPFKTWLVEFIDFDGFKETLEKKQKELIKDNDFIYHESVPAVVQVDSIKALDAIKSPTWEKILEPYMQDVANKYDSLYRGIIPLDVYEKESIYSEEKATLLR	soluble
MKLSESRGETEKHRRQQHFEHELKNMISSLTHMGGDKAGPSQYDEEEDGIRVITLSGSNLGATMKTELDNNHGDRDQNGDHELDFLSTYVNSNFQAVNNSIMIGAKYETHDPGVHLDISGDVEKPSVKIPARSSRGKKGKTPARSDRRESEHTN	soluble
